Key:
[1] = target: T1, Full-length human Leucine-rich repeat kinase 2 (LRRK2), N-terminal Strep/Flag (SF) tagged (human, UniProt Q5S007 1-2527); assay: cell-based or functional assay
[2] = target: T2, LRRK2 RocCOR domain construct (human, UniProt Q5S007 1334-1840); assay: ELISA, antigen coated on the plate, purified Nb detected via its EPEA tag
T2 construct: A second construct (residues 1293-1840, N-terminal His6-MBP) was used in certain screening experiments; not shown: N-terminal Twin-Strep-tag; C-terminal His10-tag
T2 sequence: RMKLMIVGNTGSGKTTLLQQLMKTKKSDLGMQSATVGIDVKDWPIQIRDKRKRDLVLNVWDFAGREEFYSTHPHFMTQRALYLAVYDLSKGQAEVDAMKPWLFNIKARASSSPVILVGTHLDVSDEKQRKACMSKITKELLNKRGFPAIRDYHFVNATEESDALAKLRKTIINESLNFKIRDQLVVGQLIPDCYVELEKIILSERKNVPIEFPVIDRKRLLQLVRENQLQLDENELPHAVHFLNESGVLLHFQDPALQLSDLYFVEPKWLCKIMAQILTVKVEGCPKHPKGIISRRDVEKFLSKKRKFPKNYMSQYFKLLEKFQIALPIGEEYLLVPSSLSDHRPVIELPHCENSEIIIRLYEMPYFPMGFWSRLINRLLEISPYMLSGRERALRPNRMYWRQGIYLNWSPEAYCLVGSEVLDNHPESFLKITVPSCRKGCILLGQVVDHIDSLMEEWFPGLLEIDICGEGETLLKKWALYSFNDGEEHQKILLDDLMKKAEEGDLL
Outline: (§1)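 The RocCOR, Roc, COR-B and kinase-WD40 constructs were coated side by side on one ELISA plate. Binding of each purified nanobody to every coated construct was then detected.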

[3] = target: T3, LRRK2 Roc domain construct (human, UniProt Q5S007 1329-1520); assay: as above
T3 construct: not shown: N-terminal His6-tag of pET-28a
T3 sequence: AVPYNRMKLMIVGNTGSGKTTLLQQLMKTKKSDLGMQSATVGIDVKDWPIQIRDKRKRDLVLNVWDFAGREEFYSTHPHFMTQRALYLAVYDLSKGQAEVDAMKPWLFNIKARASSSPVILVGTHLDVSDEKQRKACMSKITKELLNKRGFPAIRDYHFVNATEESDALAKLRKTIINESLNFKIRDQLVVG
Outline: as §1

[4] = target: T4, LRRK2 COR-B construct (C-terminal part of the COR domain), His6-MBP tagged (human, UniProt Q5S007 1672-1840); assay: as above
T4 construct: also called (MBP-)COR-B; not shown: N-terminal His6-MBP-tag of pDEST-566
Outline: as §1

[5] = target: T1, Full-length human Leucine-rich repeat …; assay: kinase kinetics (PhosphoSens, varied ATP), global fit to mixed inhibition; ATP-bound LRRK2; enzyme kinetics, mixed inhibition fit; ATP-bound LRRK2
Description: (§2) Full Michaelis-Menten curves (relative velocity versus [ATP]) in presence of different Nb concentrations were collected at 30° C. in a buffer consisting of 50 mM HEPES pH 7.5, 0.1% Brij-35, 50 mM NaCl, 10 mM MgCl₂ and […], using a fixed concentration of AQT0615 (10 μM) and varying concentrations of ATP. The LRRK2 concentration was chosen such that initial rates (linear fluorescence versus time curves) were obtained, and LRRK2, ATP and the Nbs were preincubated at 4° C. for 30 min prior to starting the reaction by adding the peptide substrate. The Michaelis-Menten curves for the different Nb concentrations were globally fit on a mixed-inhibition model using GraphPad Prism, according to the equation: […]

[6] = target: T1, Full-length human Leucine-rich repeat …; assay: BLI; Nb on LRRK2 trapped on streptavidin sensor via biotinylated Nb40; steady-state fit; BLI; LRRK2 trapped on the sensor via biotinylated Nb40
Description: To determine the binding affinity (dissociation constant KD) of the ten Nbs for LRRK2, two methods were used in parallel: microscale thermophoresis (MST) and bio-layer interferometry (BLI). For the MST experiment, we site-specifically labeled the ten Nbs with a m-TAM RA fluorophore at its C-terminus, using sortase-mediated coupling, and then titrated increasing amounts of full-length LRRK2 to these Nbs (FIGS. 13A-13E).
Biolayer interferometry (BLI) measurements were performed using an Octet Red96 (Forte Bio, Inc.) system in a buffer containing 50 mM HEPES pH 8.0, 150 mM NaCl, 10 mM MgCl₂, 5% glycerol, 0.1% BSA, 0.05% Tween, at 25° C. and with shaking speed 1000 rpm. […] The biotinylated Nbs were first loaded on pre-equilibrated SA biosensors at a concentration of 5 μg/mL. This Nb-loaded sensor was then used to trap FL-LRRK2 from a 50 nM LRRK2 solution. […] All experiments were performed in triplicate.

[7] = target: T1, Full-length human Leucine-rich repeat …; assay: kinase kinetics (PhosphoSens, varied ATP), global fit to mixed inhibition; affinity for apo-LRRK2; enzyme kinetics, mixed inhibition fit; apo (non-ATP-bound) LRRK2
Description: as §2

- IC50 of in vitro LRRK2 kinase activity (AQT0615 peptide, PhosphoSens, 1 mM ATP) [1]: ~65 µM
- binding result [2]: no binding (tested: not given)
- binding result [3]: no binding (tested: not given)
- binding result [4]: no binding (tested: not given)
- Ki [5]: 66 µM
- Kd [6]: 0.065 µM
- Ki [7]: 9 µM
B1: Nb23 (CA13612) (VHH)
VHH: QVQLVESGGGLVQAGGSLRLSCAASGRTFSRYTMGWFRQAPGKDREFVARITTSGAVTTYADSAKGRFTISRDNAKNTVYLQMNTLKPEDTAVYYCAAGQGQLSSQSRFVDYWGQGTQVTVSS

Source: patent US20230087785A1, “Leucine-Rich Repeat Kinase 2 Allosteric Modulators” (VIB VZW, priority 2020, published 2023)
